From patent US12304939B2, “EGFR and C-met fibronectin type III domain binding molecules” (Janssen Biotech, Inc., priority 2012, dated 2025)
Where a chain is given by its changes, count along the chain named. One block for each molecule: values may come before it.

Experiments:
[1] = tested on: H292-HGF human lung cancer xenograft; experiment: Efficacy of bispecific molecule and other inhibitors of EGFR and c-Met, subcutaneous H292-HGF human lung cancer xenograft; format: in vivo, SCID/Beige mice; details: mouse, in vivo
Description: The H292-HGF cells were maintained in vitro in RPMI1640 medium supplemented with fetal bovine serum (10% v/v), and L-glutamine (2 mM) at 37° C. in an atmosphere of 5% CO2 in air. The cells were routinely subcultured twice weekly by trypsin-EDTA treatment. The cells growing in an exponential growth phase were harvested and counted for tumor inoculation.
Each mouse was inoculated subcutaneously at the right flank region with H292-HGF tumor cells (2×10^6) in 0.1 ml of PBS with cultrex (1:1) for tumor development. The treatments were started when the mean tumor size reached 139 mm3. […] The date of tumor cell inoculation was denoted as day 0.
Before commencement of treatment, all animals were weighed, and the tumor volumes were measured. Since the tumor volume can affect the effectiveness of any given treatment, mice were assigned into groups using randomized block design based upon their tumor volumes. […] The randomized block design was used to assign experimental animals to groups. First, the experimental animals were divided into homogeneous blocks according to their initial tumor volume. Secondly, within each block, randomization of experimental animals to treatments was conducted.
The endpoint was whether tumor growth can be delayed or tumor bearing mice can be cured. Tumor size was measured twice weekly in two dimensions using a caliper, and the volume was expressed in mm3 using the formula: V=0.5 a×b2 where a and b are the long and short diameters of the tumor, respectively. The tumor size was then used for calculations of both T-C and T/C values. T-C was calculated with T as the time (in days) required for the mean tumor size of the treatment group to reach 1000 mm3, and C was the time (in days) for the mean tumor size of the control group to reach the same size. The T/C value (in percent) was an indication of antitumor efficacy; T and C were the mean tumor volume of the treated and control groups, respectively, on a given day. Complete tumor regression (CR) is defined as tumors that are reduced to below the limit of palpation (62.5 mm3). Partial tumor regression (PR) is defined as tumors that are reduced from initial tumor volume. A minimum duration of CR or PR in 3 or more successive tumor measurements is required for a CP or PR to be considered durable.
Statistical analyses of difference in tumor volume among the groups were evaluated using a one-way ANOVA followed by individual comparisons using Games-Howell (equal variance not assumed). All data were analyzed using SPSS 18.0. p<0.05 was considered to be statistically significant.

[2] = Body weight loss and tolerability in the H292-HGF xenograft study; details: mouse, in vivo
Description: At the time of routine monitoring, the animals were checked for any effects of tumor growth and treatments on normal behavior, such as mobility, visual estimation of food and water consumption, body weight gain/loss (body weights were measured twice weekly), eye/hair matting and any other abnormal effect.
Animals for which the body weight loss exceeded 20%, or for which the mean tumor size of the group exceeds 2000 mm^3 were euthanized. The study was terminated after two weeks of observation after the final dose.

[3] = tested on: NCI-H292 cells expressing human HGF; experiment: Tumor efficacy study with four bispecific EGFR/c-Met molecules, H292-HGF xenografts; format: in vivo, SCID Beige mice; details: 25 mg/kg three times per week
Description: One week after implantation, mice were stratified into groups with equivalent tumor volumes (mean tumor volume=77.9+/−1.7 mm3). Mice were dosed three times per week with the bispecific molecules and tumor volumes were recorded twice weekly.

[4] = tested on: H292 cells; experiment: Inhibition of proliferation of HGF-induced H292 cells; format: cell-based, human; details: bispecific molecules
Source text: Inhibition of tumor cell proliferation can be measured using standard methods and methods described herein.
The proliferation assay was completed using different combinations EGFR and c-Met binding FN3 domains either as a mixture or linked in a bispecific format. […] This confirmed that the avidity effect observed at the level of the receptors (FIG. 4 and FIG. 5) translates into an improvement in inhibiting cell signaling (Table 12) and cell proliferation (Table 13).
Inhibition of human tumor cell growth was assessed in standard attachment culture as described in Examples 3 or 6, or in low attachment conditions.

[5] = Differential scanning calorimetry in PBS (thermal stability); format: physicochemical; details: DSC in PBS, EGFR-binding FN3 domains
Source text: A subset of the EGFR binding FN3 domains was engineered to increase the conformational stability of each molecule. […] The new mutants, P54AR5-83v2, P54CR431-v2, and P54AR4-37v2 were expressed and purified as described above. Differential scanning calorimetry in PBS was used to assess the stability of each mutant in order to compare it to that of the corresponding parent molecule.
Differential scanning calorimetry in PBS was used to assess the stability of each FN3 domain.

Molecule: C[C@@H](Oc1cc(-c2cnn(C3CCNCC3)c2)cnc1N)c1c(Cl)ccc(F)c1Cl [Crizotinib, crizotinib, reference compound]
antitumor activity (in words) [1]: no antitumor activity
toxicity, body weight loss, tolerability (in words) [2]: More severe body weight loss

Molecule: C#Cc1cccc(Nc2ncnc3cc(OCCOC)c(OCCOC)cc23)c1 [Erlotinib, erlotinib, reference compound]
toxicity, body weight loss, tolerability (in words) [2]: More severe body weight loss

B1: ECB18: bispecific SEQ ID NO: 118: P54AR4-83v2, (AP)5, P114AR5P74-A5, linked to albumin binding domain (protein)
chain: MLPAPKNLVVSEVTEDSARLSWDDPWAFYESFLIQYQESEKVGEAIVLTVPGSERSYDLTGLKPGTEYTVSIYGVHNVYKDTNMRGLPLSAIFTTAPAPAPAPAPLPAPKNLVVSRVTEDSARLSWTAPDAAFDSFWIRYDEVVVGGEAIVLTVPGSERSYDLTGLKPGTEYYVNILGVKGGSISVPLSAIFTTAPAPAPAPAPLAEAKVLANRELDKYGVSDYYKNLINNAKTVEGVKALLDEILAALP
modifications: Bispecific EGFR/c-Met binding molecule
tumor growth (tumor growth inhibition, TGI) [3]: reduced tumor growth
tumor growth (tumor growth inhibition, TGI) ([3]; listed as P54AR4-83v2-P114AR5P74-A5): delay in tumor growth

B2: ECB28: bispecific SEQ ID NO: 119: P53A1R5-17v2, (AP)5, P114AR5P74-A5, linked to albumin binding domain (protein)
chain: B1 chain with D23A, W26H, A27G, E30D
modifications: Bispecific EGFR/c-Met binding molecule
tumor growth (tumor growth inhibition, TGI) [3]: reduced tumor growth

B3: ECB39: bispecific SEQ ID NO: 121: P53A1R5-17v2, (AP)5, P114AR7P94-A3, linked to albumin binding domain (protein)
chain: MLPAPKNLVVSEVTEDSARLSWADPHGFYDSFLIQYQESEKVGEAIVLTVPGSERSYDLTGLKPGTEYTVSIYGVHNVYKDTNMRGLPLSAIFTTAPAPAPAPAPLPAPKNLVVSRVTEDSARLSWTAPDAAFDSFWIRYFEFLGSGEAIVLTVPGSERSYDLTGLKPGTEYVVNIMGVKGGKISPPLSAIFTTAPAPAPAPAPLAEAKVLANRELDKYGVSDYYKNLINNAKTVEGVKALLDEILAALP
modifications: Bispecific EGFR/c-Met binding molecule
tumor growth (tumor growth inhibition, TGI) [3]: reduced tumor growth
tumor growth (tumor growth inhibition, TGI) ([3]; listed as P53A1R5-17v2-P114AR7P94-A3): showed the most efficacy

IC50 [4]: 31 nM
B4: ECB97: bispecific SEQ ID NO: 64: P54AR4-83v22, (AP)5, P114AR7P95-C5v2 (protein)
chain: MLPAPKNLVVSEVTEDSARLSWDDPWAFYESFLIQYQESEKVGEAIVLTVPGSERSYDLTGLKPGTEYTVSIYGVHNVYKDTNIRGLPLSAIFTTAPAPAPAPAPLPAPKNLVVSRVTEDSARLSWTAPDAAFDSFWIRYFEFLGSGEAIVLTVPGSERSYDLTGLKPGTEYVVNILSVKGGSISPPLSAIFTT
modifications: bispecific EGFR/cMet binding molecule

IC50 [4]: 574 nM
B5: ECB109: bispecific SEQ ID NO: 68: P54AR4-83v23, (AP)5, P114AR7P95-C5v2 (protein)
chain: B4 chain with W26H
modifications: bispecific EGFR/cMet binding molecule

IC50 [4]: 484 nM
B6: ECB106: bispecific SEQ ID NO: 65: P54AR4-83v23, (AP)5, P114AR7P94-A3v22 (protein)
chain: B4 chain with W26H, S178G, S183K
modifications: bispecific EGFR/cMet binding molecule

IC50 [4]: 11400 nM
B7: ECB108: bispecific SEQ ID NO: 67: P54AR4-83v23, (AP)5, P114AR9P122-A7v2 (protein)
chain: B4 chain with W26H, L144V, G145S, S146K, E148D, S178G
modifications: bispecific EGFR/cMet binding molecule

IC50 [4]: 2640 nM
B8: ECB107: bispecific SEQ ID NO: 66: P54AR4-83v23, (AP)5, P114AR9P121-A6v2 (protein)
chain: B4 chain with W26H, L144V, S178G
modifications: bispecific EGFR/cMet binding molecule

B9: P54CR4-31: EGFR-binding FN3 domain, SEQ ID NO: 26 (protein)
chain: LPAPKNLVVSEVTEDSLRLSWTAPDAAFDSFLIQYQESEKVGEAINLTVPGSERSYDLTGLKPGTEYTVSIYGVLGSYVFEHDVMLPLSAEFTT
modifications: EGFR binding FN3 domain
Tm [5]: 60.9 °C

B10: P54CR4-31v2: EGFR-binding FN3 domain, SEQ ID NO: 28; stabilized P54CR4-31 (protein)
chain: B9 chain with L17A, N46V, E91I
modifications: EGFR binding FN3 domain
Tm [5]: 78.9 °C

B11: P54AR4-37v2: EGFR-binding FN3 domain, SEQ ID NO: 29; stabilized P54AR4-37 (protein)
chain: LPAPKNLVVSEVTEDSLRLSWTWPYADLDSFLIQYQESEKVGEAINLTVPGSERSYDLTGLKPGTEYTVSIYGVHNVYKDTNMRGLPLSAEFTT
modifications: EGFR binding FN3 domain
Tm [5]: 64.2 °C

B12: P54AR4-83: EGFR-binding FN3 domain, SEQ ID NO: 25 (protein)
chain: B11 chain with T22D, W23D, Y25W, D27F, L28Y, D29E
modifications: EGFR binding FN3 domain
Tm [5]: 50.6 °C

B13: P54AR4-37: EGFR-binding FN3 domain, printed SEQ ID NO: 22 (possibly P54AR4-73) (protein)
chain: B11 chain
modifications: EGFR binding FN3 domain
Tm [5]: 45.9 °C
